Measurements published in patent publication US20190328788A1 (GENAGON THERAPEUTICS, published 2019).
Ends that are not written are not given here.

T1: Growth and Differentiation Factor 15 (GDF15) (UniProt Q99988 197-308, limits assumed)
T1 construct: also called MIC-1; MIC1
T1 sequence (looked up): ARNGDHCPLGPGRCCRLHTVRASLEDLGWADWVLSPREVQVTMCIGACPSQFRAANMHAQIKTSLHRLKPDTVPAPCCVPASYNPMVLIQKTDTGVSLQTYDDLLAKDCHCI

T2: transforming growth factor-beta 2 (TGF-β2) (UniProt P61812 303-414)
T2 construct: also called TGFb2; TGFB2
T2 sequence (looked up): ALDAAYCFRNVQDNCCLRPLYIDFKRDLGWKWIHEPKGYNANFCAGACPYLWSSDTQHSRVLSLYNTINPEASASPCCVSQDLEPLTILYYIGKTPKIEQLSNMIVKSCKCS

T3: transforming growth factor-beta 3 (TGF-β3) (UniProt P10600 301-412)
T3 construct: also called TGFb3; TGFB3
T3 sequence (looked up): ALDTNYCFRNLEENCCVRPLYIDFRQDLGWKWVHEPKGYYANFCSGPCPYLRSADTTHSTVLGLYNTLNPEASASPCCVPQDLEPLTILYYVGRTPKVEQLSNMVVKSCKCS


What was measured:
Experiment in all cases: ELISA, peptide on streptavidin plate, ligand 100 ng/ml
[1] = target: T1, Growth and Differentiation Factor 15 …
Method: (§1) Biotinylated synthetic peptide fragments from CLPTM1 (JPT peptides, Germany) were immobilized in a streptavidin 96 well plate (#15500 Pierce) at 1 μM in PBS over night at +4° C. Plate was then washed 4 times in 300 μl PBS with 0.05% tween-20 (wash buffer). The plate was then blocked with PBS 1% BSA and 0.05% tween-20 (blocking buffer) for 1.5 hours at room temperature, then washed 4 times in wash buffer. Ligands GDF15, TGFb1, TGFb2 and TGFb3 (Abcam) were added in blocking buffer at 100 ng/ml and incubated at room temperature for 2 hours. The plate was then washed 8 times in 300 μL wash buffer with 2× NaCl. An anti-GDF15 antibody was added at 1 μg/ml (R&D Systems, goat polyclonal) or a pan-specific anti-TGFb antibody (R&D Systems, mouse 1 D11), and the plate incubated in blocking buffer for 1 hour at room temperature followed by washing with 4×300 μl wash buffer. HAF017 anti-goat-HRP antibody (to detect the anti-GDF15 antibody) or Santa Cruz sc-2005 Goat anti-mouse-HRP (to detect the pan-specific anti-TGFb antibody) was added and the plate incubated for 1 hour in blocking buffer followed by a wash. TMB substrate was added and stopped after 15 minutes with H₂SO₄. OD 450-620 was measured in an ELISA reader.

[2] = target: T4, transforming growth factor-beta 1 (TGF-β1) (UniProt P01137 279-390)
T4 construct: also called TGFb1; TGFB1
Method: as §1

[3] = target: T2, transforming growth factor-beta 2 …
Method: as §1

[4] = target: T3, transforming growth factor-beta 3 …
Method: as §1

T4 sequence (P01137 279-390 limits assumed): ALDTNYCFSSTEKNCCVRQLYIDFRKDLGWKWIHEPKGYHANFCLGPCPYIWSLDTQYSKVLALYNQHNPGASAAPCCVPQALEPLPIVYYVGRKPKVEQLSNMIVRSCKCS

ELISA OD450 [1] [OD450]	ELISA OD450 [2] [OD450]	ELISA OD450 [3] [OD450]	ELISA OD450 [4] [OD450]	Binder
0.055	0.015	0.009	0.041	RNLFPKDTLMNLHVYISEHEG (also: biotinylated, site not given here) [CLPTM1 peptide fragment of SEQ ID NO: 30]
0.033	0.013	0.008	0.011	LWRWQLYAAQSTKSPWNFLGG (also: biotinylated, site not given here) [CLPTM1 peptide fragment of SEQ ID NO: 26]
0.22	0.043	0.025	0.018	YPINESLASLPLRVSFCPLSG (also: biotinylated, site not given here, also called peptide 20) [CLPTM1 peptide fragment of SEQ ID NO: 27]
0.061	0.032	0.014	0.029	FTDFNATSALFWEQHDLVYGG (also: biotinylated, site not given here) [CLPTM1 peptide fragment of SEQ ID NO: 31]
0.023	0.01	0.006	0.019	WQVIKGVLFRIFIIWAISSWG (also: biotinylated, site not given here) [CLPTM1 peptide fragment of SEQ ID NO: 29]
0.507	1.54	0.164	0.151	GDYYPIIYFNDYWNLQKDYYG (also: biotinylated, site not given here, also called peptide 21) [CLPTM1 peptide fragment of SEQ ID NO: 28]
